Where “and” joins values, the source holds several entries; their conditions need not be identical. Equal entries are not always repeated. Where two headings read alike, the source gives them in different places.
Legend:
[1] = system: (5)M2+TE, (5)M5+TE, and (5)M6+TE; details: Wu et al. 2000; cited from earlier work
[2] = target: T1, (5)M3+TE (Saccharopolyspora erythraea, UniProt Q03132+Q03133); details: previously shown; cited from earlier work
T1 construct: (5)M3+TE: module 3 with N-terminal linker from module 5; N-terminal interpolypeptide linker of DEBS module 5 (start of DEBS3, Q03133); His6 (C); made in house; host or cells: E. coli BL21(DE3) co-expressing B. subtilis sfp

[3] = target: T2, module 5+TE (Saccharopolyspora erythraea, UniProt Q03133); details: diffusive loading, shown earlier; cited from earlier work
T2 construct: a single module of the DEBS PKS fused to the thioesterase (TE) termination region of module 6; thioesterase (TE) domain of DEBS (end of the same DEBS3 polypeptide); made in house; host or cells: E. coli BL21(DE3) co-expressing B. subtilis sfp

[4] = target: T3, (3)M3+TE (Saccharopolyspora erythraea, UniProt Q03132+Q03133); details: previously shown; cited from earlier work
T3 construct: encodes module 3 of DEBS (M3) with its own N-terminal linker and with the thioesterase fused to the C-terminus; natural N-terminal interpolypeptide linker of module 3 (start of DEBS2, ahead of the Module 3 feature); His6 (C); made in house; host or cells: E. coli BL21(DE3) co-expressing B. subtilis sfp

[5] = target: T4, M3+TE (Saccharopolyspora erythraea, UniProt Q03132+Q03133); details: cited from earlier work
T4 construct: encodes module 3 of DEBS (M3) with its own N-terminal linker and with the thioesterase fused to the C-terminus; natural N-terminal interpolypeptide linker of module 3 (start of DEBS2, ahead of the Module 3 feature); His6 (C); made in house; host or cells: E. coli BL21(DE3) co-expressing B. subtilis sfp

[6] = Kinetic constants kcat and KM for converting diketide to triketide (cell-free system); assay type: biochemical
Method: (§1) A cell-free system, tested for the ability to convert the cysteamine thioester of 2S,3R-2-methyl-3-hydroxypentanoic acid (compound 2 in FIG. 2), consisted of 0.5-10 mM concentration of the thioester, 2.5 mM ^14C-labeled methylmalonyl CoA and 100 pmoles of purified protein prepared in Example 1 in a 100 μl reaction. In some cases, 1 mM of NADPH was added; this was done in assay mixtures containing (M2+TE), (M5+TE) and (M6+TE) proteins. The protein was, in each case, a single module of the DEBS PKS fused to the thioesterase (TE) termination region of module 6.
(§2) The reaction mixtures were quenched and extracted by ethyl acetate and separated by thin-layer chromatography (TLC) to discern the formation of the triketide ketolactone 3 and triketide lactone 4 (both shown in FIG. 2) after 30 minutes.
The various constructs which are successful in converting diketide to triketide were then evaluated for the kinetic constants kcat and KM. […] This is evidently due to the absence of beta-carbonyl modifying enzymes in module 3 as verified by the fact that removal of NADPH, (which is required for the activity of such modules) from the reaction mixture of (N-ERL-M6+TE) also results in a lowering of the kcat.

[7] = Cell-free synthesis of triketides from diketide thioester by single module constructs; assay type: biochemical; details: purified protein, after 30 minutes
Method: as §1, §2

[8] = target: T1, (5)M3+TE; assay: Tetraketide lactone 2 formation, coincubation of donor module with (5)M3+TE; assay type: biochemical
Method: (§3) Assays of M2 and M3+TE contained 1.0 μM M2 and 0.4-4 μM M3+TE, 7 mM NDK, 0.5 mM ^14C-methylmalonyl-CoA (specific activity reduced to 3.4 mCi/mmol), 4 mM NADPH, 440 mM sodium phosphate, 1 mM EDTA, 2.5 mM DTT, and 20% w/v glycerol, pH 7.2, in 70 μL. Assays of M2(4) and (5)M3+TE were identical, except they contained 0.5 μM M2(4), 0.5-5 μM (5)M3+TE, and 0.4 mM ^14C-methylmalonyl-CoA (specific activity reduced to 6.2 mCi/mmol). The concentration of M2(4) was limiting in order to facilitate its saturation with (5)M3+TE. The reactions were prewarmed at 30° C. and initiated by the addition of the methylmalonyl-CoA. As described above, 20 μL aliquots were removed at various time points and processed. Extracts loaded onto TLC plates were separated using either 80% ethyl acetate in hexanes or 5% methanol in dichloromethane, both of which allowed identification of the tetraketide lactone 2 and the triketide lactones 3 and 4.
(§4) For tetraketide formation, the rate of production of tetraketide was recorded for varying concentrations of M3+TE [or (5)M3+TE] at a fixed concentration of M2 [or M2(4)] and saturating concentrations of substrates. By fitting the rate dependence of tetraketide to a saturation curve, the maximal velocity (νmax) of tetraketide production was determined, and was assumed to represent the case where every M2 homodimer was productively associated with an M3+TE homodimer. Thus, the affinity of this protein-protein interaction could be calculated from the rate of tetraketide formation, as represented in Equation 1 ν=kcat[M2-M3] (1) ([M2], [M3], and [M2-M3] refer to the concentrations of M2, unbound M3+TE, and the M2/M3+TE complex, respectively). Since [M2-M3] is related to the KD of M2 and M3+TE as shown in Equation 2, [formula] which can be rearranged to yield Equation 3, [formula] where [M2]0=total concentration of M2, the velocity of tetraketide production can be defined relative to the KD: [formula] where ν=kcat[M2-M3] and νmax=kcat[M2]0. […]

[9] = Kinetic analysis of individual modules with natural diketide (NDK); assay type: biochemical; details: NDK as substrate, 30° C., saturating NADPH and methylmalonyl-CoA
Method: In Vitro Polyketide Production. Assays of individual modules contained 1.0 μM protein, 1-10 mM N-acetylcysteamine thioester of the “natural” (2S,3R)-2-methyl-3-hydroxypentanoic acid diketide (NDK) (1), 4 mM NADPH, 440 mM sodium phosphate, 1 mM EDTA, 2.5 mM dithiothreitol (DTT), and 20% w/v glycerol, pH 7.2, in 80 μL. Reactions with M2 or M2(4) included 0.3 mM ^14C-methylmalonyl-CoA (specific activity adjusted to 10.4 mCi/mmol), and those with M3+TE or (5)M3+TE included 0.5 mM ^14C-methylmalonyl-CoA (specific activity reduced to 1.1 mCi/mmol). [M2(4) refers to a derivative of M2 in which the C-terminal linker has been replaced with its counterpart from module 4, whereas (5)M3 refers to a derivative of M3 in which the N-terminal linker has been replaced with its counterpart from module 5 (see FIG. 4).] […] Product formation was quantified by comparison with standards of the labeled methylmalonyl-CoA. […]
Kinetic Analysis. For individual modules, the steady-state turnover number was determined from the time course of triketide formation, normalized to the concentration of protein. The dependence of the rate on substrate concentration was measured by varying the concentration of NDK while maintaining saturating levels of NADPH and methylmalonyl-CoA.

[10] = target: T4, M3+TE; assay: Tetraketide lactone 2 formation, coincubation of donor module with M3+TE; assay type: biochemical
Method: as §3, §4

CCC(O)C(C)C(=O)SCCNC(C)=O (stereo not drawn) [2b]
incorporation of NAC thioester (qualitative) [1]: substrates for the three modules | incorporation of NAC thioester (qualitative) [2]: readily incorporated and elongated | kcat (elongation rate constant), NAC thioester substrate [3]: 0.00033 s⁻¹ | incorporation of NAC thioester (qualitative) [4]: readily incorporated and elongated

CCC(O)C(C)C(=O)SCCNC(C)=O (stereo not drawn) [2c]
incorporation of NAC thioester (qualitative) [1]: no turnover

CCC(O)C(C)C(=O)SCCNC(C)=O (stereo not drawn) [2d]
incorporation of NAC thioester (qualitative) [1]: no turnover

DEBS1: first protein of 6-deoxyerythronolide B synthase, loading module and extender modules 1 and 2
Kd ([5]; Gokhale et al. 1999, read-out: KD, previously reported value): 2600 nM | rate of formation of the same tetraketide, earlier measurement ([5]; Pieper et al. 1997): 0.23 min^−

ERL − M2 + TE: module 2+TE carrying the upstream 39 amino acids (N-ERL) from module 5
Km ([6]; diketide to triketide): 4.6 ± 0.4 mM | kcat × 100 ([6]; diketide to triketide): 8 ± 0.6 min^−1 | Triketide Formed [7]: Yes | Triketide Formed ([7]; listed as (N-ERL-M2+TE)): able to produce the triketide product

ERL − M6 + TE: module 6+TE carrying the upstream 39 amino acids (N-ERL) from module 5
Km ([6]; (− NADPH)): 4.1 ± 0.4 mM | kcat × 100 ([6]; (− NADPH)): 4.5 ± 0.7 min^−1 | Km ([6]; diketide to triketide): 4.3 ± 0.4 mM | kcat × 100 ([6]; diketide to triketide): 9.5 ± 0.6 min^−1 | Triketide Formed [7]: Yes | Triketide Formed ([7]; listed as (N-ERL-M6+TE)): able to produce the triketide product

M2(4): derivative of M2 containing the C-terminal linker of DEBS module 4
kcat (saturating rate) of tetraketide lactone 2 formation ([8]; fixed donor, variable (5)M3+TE): 0.0123 ± 0.001 s⁻¹ and 0.0123 s⁻¹ | Kd ([8]; from saturation curve): 2100 ± 400 nM | kcat [9]: ~0.0005 s⁻¹ | highest rate constants that could be measured, tetraketide lactone 2 ([10]; mismatched linker pair): 0.02 to 0.03 min⁻¹

M2: module 2 of DEBS, thioesterase replaced with the natural C-terminal linker for module 2
highest rate constants that could be measured, tetraketide lactone 2 ([8]; mismatched linker pair): 0.02 to 0.03 min⁻¹ | kcat [9]: ~0.00033 s⁻¹ | Kd ([10]; estimated from saturation curve): 1100 ± 100 nM | kcat (maximum / saturating rate constant) of tetraketide lactone 2 formation ([10]; fixed donor, variable M3+TE, 7 mM NDK): 0.0045 ± 0.00017 s⁻¹ and 0.0045 s⁻¹

M5 + TE: single module 5 of DEBS fused to the thioesterase (TE) domain
Km ([6]; diketide to triketide): 4.7 ± 0.4 mM | kcat × 100 ([6]; diketide to triketide): 7.5 ± 0.7 min^−1 | Triketide Formed [7]: Yes | Triketide Formed ([7]; listed as (M5+TE)): expected triketides were formed
